Reference: the Human Domainome abundance scans (Beltran et al. 2025)
± gives the uncertainty stated by the source.

B1: Cytoplasmic polyadenylation element-binding protein 2, residues 513 to 575; numbered along this chain, Q7Z5Q1 (parent)
chain: KRVEVKPYVLDDQMCDECQGARCGGKFAPFFCANVTCLQYYCEFCWANIHSRAGREFHKPLVK

Variants of: B1
Experiment: abundance fitness (aPCA) (normalised: wild type 0, dead -1); higher = more abundant; growth selection in yeast, the domain comes from the species named
Conditions: Homo sapiens

| Variant | abundance fitness |
| --- | --- |
| C32L | -0.882 ± 0.059 |
| C32R | -0.739 ± 0.079 |
| C32P | -0.737 ± 0.089 |
| Q19E | 0.006 ± 0.046 |
| Q19I | -0.503 ± 0.13 |
| Q19H | -0.134 ± 0.096 |
| V35R | 0.077 ± 0.039 |
| C37I | -0.568 ± 0.16 |
| C37A | -0.82 ± 0.06 |
| F30G | -0.582 ± 0.063 |
| F30I | -0.161 ± 0.079 |
| F30P | -0.621 ± 0.092 |
| V5N | 0.048 ± 0.086 |
| V5F | -0.098 ± 0.081 |
| V5T | 0.006 ± 0.044 |
| V5Y | -0.141 ± 0.055 |
| H58I | -0.679 ± 0.15 |
| N48V | -0.003 ± 0.061 |
| N48S | 0.032 ± 0.039 |
| A47K | 0.091 ± 0.063 |
| C42W | -1.29 ± 0.44 |
| C42F | -0.819 ± 0.11 |
| W46Y | -0.154 ± 0.052 |
| W46F | 0.027 ± 0.052 |

| Variant | abundance fitness |
| --- | --- |
| W46M | -0.336 ± 0.092 |
| W46H | -0.328 ± 0.059 |
| C18S | -0.764 ± 0.057 |
| R2G | -0.077 ± 0.073 |
| R2L | -0.363 ± 0.053 |
| R2V | -0.187 ± 0.057 |
| R2M | -0.012 ± 0.051 |
| V3C | -0.945 ± 0.13 |
| V3N | -0.207 ± 0.096 |
| F57M | 0.144 ± 0.066 |
| F57E | 0.117 ± 0.047 |
| C23D | 0.028 ± 0.074 |
| C23E | -0.153 ± 0.068 |
| C23K | -0.194 ± 0.06 |
| Y40A | -0.149 ± 0.056 |
| P7N | 0.01 ± 0.086 |
| P7F | -0.413 ± 0.18 |
| R22W | -0.332 ± 0.078 |
| R22H | 0.077 ± 0.098 |
| R22C | -0.419 ± 0.23 |
| R22F | -0.363 ± 0.088 |
| R22M | -0.026 ± 0.066 |
| L61D | 0.04 ± 0.083 |
| L61N | 0.033 ± 0.077 |

| Variant | abundance fitness |
| --- | --- |
| L61M | 0.012 ± 0.056 |
| R55C | -0.194 ± 0.09 |
| R52W | -0.225 ± 0.061 |
| R52L | -0.017 ± 0.039 |
| G25T | -0.088 ± 0.045 |
| Y41D | -0.729 ± 0.1 |
| Y41T | -0.329 ± 0.088 |
| Y41M | -0.053 ± 0.056 |
| Y41C | -0.365 ± 0.09 |
| Y41P | -0.734 ± 0.082 |
| Y41H | -0.704 ± 0.26 |
| Y41R | -0.804 ± 0.067 |
| Y41F | -0.088 ± 0.11 |
| D12K | 0.012 ± 0.082 |
| D12R | -0.182 ± 0.045 |
| D12T | -0.168 ± 0.051 |
| D12C | -0.305 ± 0.18 |
| D12A | -0.117 ± 0.061 |
| K26V | -0.06 ± 0.038 |
| K26S | -0.079 ± 0.047 |
| D11P | -0.183 ± 0.083 |
| D11Q | -0.037 ± 0.069 |
| D11I | 0.022 ± 0.072 |
| D11L | -0.27 ± 0.041 |

| Variant | abundance fitness |
| --- | --- |
| D11W | -0.238 ± 0.055 |
| Y8Q | 0.012 ± 0.06 |
| Y8H | -0.036 ± 0.079 |
| E17Q | 0.09 ± 0.059 |
| E17N | -0.128 ± 0.17 |
| E43G | -0.179 ± 0.047 |
| E43L | -0.395 ± 0.044 |
| K63G | 0.1 ± 0.1 |
| A53E | 0.082 ± 0.055 |
| F44A | 0.05 ± 0.043 |
| F44M | -0.145 ± 0.057 |
| F44D | -0.109 ± 0.1 |
| C15L | -0.531 ± 0.053 |
| C15F | -0.588 ± 0.073 |
| C15H | -0.418 ± 0.13 |
| C15Q | -0.55 ± 0.12 |
| C15M | -0.507 ± 0.069 |
| E4I | -0.289 ± 0.097 |
| E4T | -0.111 ± 0.047 |
| S51H | -0.054 ± 0.07 |
| S51M | 0.029 ± 0.051 |
| S51K | 0.106 ± 0.066 |
| S51T | 0.006 ± 0.063 |
| K59D | -0.132 ± 0.069 |

| Variant | abundance fitness |
| --- | --- |
| K59S | 0.021 ± 0.04 |
| K59F | -0.541 ± 0.089 |
| K59C | -0.199 ± 0.05 |
| K59G | -0.255 ± 0.045 |
| F31K | -0.332 ± 0.09 |
| F31Q | -0.425 ± 0.072 |
| F31P | -0.588 ± 0.069 |
| F31M | -0.461 ± 0.11 |
| L38S | 0.009 ± 0.052 |
| L10Q | 0.121 ± 0.051 |
| I49M | -0.184 ± 0.1 |
| I49D | -0.186 ± 0.07 |
| I49Y | 0.026 ± 0.051 |
| I49S | -0.015 ± 0.036 |
| V9Y | -0.212 ± 0.07 |
| V9D | 0.083 ± 0.064 |
| V9I | -0.022 ± 0.042 |
| V9Q | 0.096 ± 0.057 |
| A33N | 0.002 ± 0.07 |
| A33F | -0.336 ± 0.078 |
| Q13S | -0.144 ± 0.041 |
| M14G | -0.187 ± 0.054 |
| M14R | -0.154 ± 0.059 |
| T36G | 0.073 ± 0.036 |

| Variant | abundance fitness |
| --- | --- |
| T36N | -0.024 ± 0.057 |
| T36C | -0.201 ± 0.12 |
| T36K | -0.027 ± 0.045 |
| T36H | -0.061 ± 0.05 |
| P29D | -0.096 ± 0.1 |
| P29Y | -0.122 ± 0.053 |
| P29G | -0.03 ± 0.041 |
| P29Q | 0.074 ± 0.11 |
| A21Q | -0.141 ± 0.073 |
| A21H | -0.238 ± 0.077 |
| G24H | -0.252 ± 0.12 |
| G24P | -0.21 ± 0.06 |
| G24Q | 0.066 ± 0.054 |
| G20R | -0.522 ± 0.049 |
| G20D | -0.093 ± 0.08 |
| D16Y | 0.192 ± 0.087 |
| D16R | 0.015 ± 0.037 |
| D16K | 0.056 ± 0.068 |
| G54P | -0.004 ± 0.057 |
| G54W | -0.259 ± 0.061 |
| G54K | -0.195 ± 0.1 |
| A28C | -0.674 ± 0.15 |
| A28D | -0.484 ± 0.077 |
| A28M | -0.445 ± 0.094 |

| Variant | abundance fitness |
| --- | --- |
| H50I | -0.992 ± 0.18 |
| H50W | -0.784 ± 0.093 |
| Q39M | 0.078 ± 0.074 |
| Q39T | -0.002 ± 0.053 |
| Q39E | -0.13 ± 0.06 |
| Q39S | 0.016 ± 0.045 |
| Q39C | -0.046 ± 0.064 |
| K6D | 0.029 ± 0.065 |
| C45Y | -0.917 ± 0.085 |
| C45P | -0.932 ± 0.1 |
| C45M | -1.24 ± 0.14 |
| C45H | -0.733 ± 0.1 |
| K1C | -0.276 ± 0.076 |
| K1G | -0.218 ± 0.053 |
| K1V | -0.509 ± 0.087 |
| F27V | -0.035 ± 0.04 |
| F27Y | -0.202 ± 0.095 |
| F27I | -0.218 ± 0.1 |
| F27S | -0.022 ± 0.047 |
| F27G | -0.061 ± 0.042 |
| P60F | -0.937 ± 0.21 |
| P60H | -0.226 ± 0.13 |
| P60G | -0.341 ± 0.049 |
